Three substances from patent US20080003218A1 can be followed below.

For the assay, the target named is FcεRI-bound IgE (human IgE loaded on CHO 3D10 cells expressing FcεRI alpha chain) (human) (UniProt P01854). In words: FACS on IgE-loaded CHO 3D10 cells (FIG. 4).
FcεRI-bound IgE (human IgE loaded on CHO 3D10 cells expressing FcεRI alpha chain) (human), sequence (P01854 whole entry, chain 1 of 2): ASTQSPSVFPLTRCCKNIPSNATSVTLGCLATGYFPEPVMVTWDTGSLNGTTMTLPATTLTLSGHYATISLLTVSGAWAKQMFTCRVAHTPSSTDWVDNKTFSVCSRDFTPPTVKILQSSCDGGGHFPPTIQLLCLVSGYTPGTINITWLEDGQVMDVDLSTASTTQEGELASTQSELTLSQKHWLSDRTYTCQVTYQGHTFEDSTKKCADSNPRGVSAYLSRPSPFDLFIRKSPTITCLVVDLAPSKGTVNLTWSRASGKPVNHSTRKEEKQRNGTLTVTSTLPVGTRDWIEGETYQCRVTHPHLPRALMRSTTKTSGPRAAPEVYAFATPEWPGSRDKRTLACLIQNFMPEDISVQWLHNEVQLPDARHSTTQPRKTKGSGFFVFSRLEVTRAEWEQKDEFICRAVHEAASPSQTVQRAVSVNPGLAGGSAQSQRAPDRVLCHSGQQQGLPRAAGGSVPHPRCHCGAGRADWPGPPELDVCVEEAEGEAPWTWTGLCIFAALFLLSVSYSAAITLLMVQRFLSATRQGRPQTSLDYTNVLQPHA
FcεRI-bound IgE (human IgE loaded on CHO 3D10 cells expressing FcεRI alpha chain) (human), sequence (P12319 26-257, chain 2 of 2, further chain): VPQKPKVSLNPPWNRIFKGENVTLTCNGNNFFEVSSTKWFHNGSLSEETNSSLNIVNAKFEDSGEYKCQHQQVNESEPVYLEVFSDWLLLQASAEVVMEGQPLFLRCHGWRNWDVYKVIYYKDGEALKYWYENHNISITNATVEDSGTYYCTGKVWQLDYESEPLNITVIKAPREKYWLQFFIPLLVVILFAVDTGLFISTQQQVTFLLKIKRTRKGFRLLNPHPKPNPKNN
MOPC21 (murine IgG1 control antibody): the mean channel fluorescence at 0.1 µg/ml (mean channel fluorescence) was found to be 7.3. Consider “humanized mAb 4D5 (human IgG1 control antibody)”, for which the mean channel fluorescence at 0.1 µg/ml (mean channel fluorescence) came to 4.7.

“murine anti-human IgE monoclonal antibody MaE11” had a mean channel fluorescence at 0.1 µg/ml (mean channel fluorescence) of 6.4.
